Source: article PMC6531784, “Discovering metabolic disease gene interactions by correlated effects on cellular morphology” (Molecular Metabolism, 2019)
Several values for one entry are separate records, joined by “and”; a condition that tells them apart may be missing. Equal values may be shown once.

Tests used:
seipin-Myc, Q96G97 = target: T1, seipin-Myc, Q96G97; assay: atomic force microscopy; proteins co-expressed in tsA 201 cells, isolated by anti-Myc immunoaffinity chromatography, imaged in tapping mode in air; particle volumes from heights and radii; details: remark: other sources report otherwise
T1 chain: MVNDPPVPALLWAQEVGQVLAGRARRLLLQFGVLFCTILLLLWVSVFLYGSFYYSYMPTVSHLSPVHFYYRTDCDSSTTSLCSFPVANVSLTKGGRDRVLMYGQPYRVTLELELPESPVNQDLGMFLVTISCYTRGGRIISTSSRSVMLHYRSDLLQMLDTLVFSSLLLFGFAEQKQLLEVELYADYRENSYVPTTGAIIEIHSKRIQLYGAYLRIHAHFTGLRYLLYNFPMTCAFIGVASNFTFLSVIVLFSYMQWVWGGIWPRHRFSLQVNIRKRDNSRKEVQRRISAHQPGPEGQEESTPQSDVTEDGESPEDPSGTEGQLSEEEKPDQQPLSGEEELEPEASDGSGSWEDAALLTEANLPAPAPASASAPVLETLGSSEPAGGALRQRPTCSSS

seipin-Myc = target: T2, seipin-Myc (UniProt Q96G97 1-398); assay: as above; details: partners not purified
T2 construct: seipin (product of BSCL2) in the pcDNA3.1 MycHis vector; also called seipin dodecamers; not shown: Myc, C-terminal, kept; copies: 12
T2 sequence (looked up): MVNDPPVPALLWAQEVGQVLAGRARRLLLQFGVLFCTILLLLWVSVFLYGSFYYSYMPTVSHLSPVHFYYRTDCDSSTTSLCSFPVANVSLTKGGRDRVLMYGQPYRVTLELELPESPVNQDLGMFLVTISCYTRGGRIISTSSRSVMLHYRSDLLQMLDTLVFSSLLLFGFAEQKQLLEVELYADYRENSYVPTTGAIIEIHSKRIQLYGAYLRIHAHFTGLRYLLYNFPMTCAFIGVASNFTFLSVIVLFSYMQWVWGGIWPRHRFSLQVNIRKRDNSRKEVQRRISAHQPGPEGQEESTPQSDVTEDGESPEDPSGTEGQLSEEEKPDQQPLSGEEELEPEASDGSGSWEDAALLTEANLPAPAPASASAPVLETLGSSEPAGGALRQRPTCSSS

Binder	stoichiometry N (seipin-Myc, Q96G97)	stoichiometry N (seipin-Myc)
seipin-Myc, Q96G97 1-398 (natural protein) MVNDPPVPALLWAQEVGQVLAGRARRLLLQFGVLFCTILLLLWVSVFLYGSFYYSYMPTVSHLSPVHFYYRTDCDSSTTSLCSFPVANVSLTKGGRDRVLMYGQPYRVTLELELPESPVNQDLGMFLVTISCYTRGGRIISTSSRSVMLHYRSDLLQMLDTLVFSSLLLFGFAEQKQLLEVELYADYRENSYVPTTGAIIEIHSKRIQLYGAYLRIHAHFTGLRYLLYNFPMTCAFIGVASNFTFLSVIVLFSYMQWVWGGIWPRHRFSLQVNIRKRDNSRKEVQRRISAHQPGPEGQEESTPQSDVTEDGESPEDPSGTEGQLSEEEKPDQQPLSGEEELEPEASDGSGSWEDAALLTEANLPAPAPASASAPVLETLGSSEPAGGALRQRPTCSSS	12	–
FLAG-perilipin (in tsA 201 cells) (natural protein, UniProt O60240 1-522, looked up, perilipin (product of PLIN1) in the pCMV3xFLAG vector; Same construct as m7, other host cells) MAVNKGLTLLDGDLPEQENVLQRVLQLPVVSGTCECFQKTYTSTKEAHPLVASVCNAYEKGVQSASSLAAWSMEPVVRRLSTQFTAANELACRGLDHLEEKIPALQYPPEKIASELKDTISTRLRSARNSISVPIASTSDKVLGAALAGCELAWGVARDTAEFAANTRAGRLASGGADLALGSIEKVVEYLLPPDKEESAPAPGHQQAQKSPKAKPSLLSRVGALTNTLSRYTVQTMARALEQGHTVAMWIPGVVPLSSLAQWGASVAMQAVSRRRSEVRVPWLHSLAAAQEEDHEDQTDTEGEDTEEEEELETEENKFSEVAALPGPRGLLGGVAHTLQKTLQTTISAVTWAPAAVLGMAGRVLHLTPAPAVSSTKGRAMSLSDALKGVTDNVVDTVVHYVPLPRLSLMEPESEFRDIDNPPAEVERREAERRASGAPSAGPEPAPRLAQPRRSLRSAQSPGAPPGPGLEDEVATPAAPRPGFPAVPREKPKRRVSDSFFRPSVMEPILGRTHYSQLRKKS	–	1 perilipin per seipin dodecamer and 2 perilipin per seipin dodecamer
